Patent publication US20110008345A1 (GlaxoSmithKline, published 2011)

T1: recombinant E. coli-expressed human IL-4 (human, UniProt P05112 25-153)
T1 construct: made and purified at GSK; also called Interleukin-4; rhIL-4
T1 sequence: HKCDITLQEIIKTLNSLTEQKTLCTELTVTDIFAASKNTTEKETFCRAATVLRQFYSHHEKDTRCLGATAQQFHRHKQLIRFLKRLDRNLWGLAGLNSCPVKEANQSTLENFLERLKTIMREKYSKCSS


Experiments:
[1] = molecular target: T2, recombinant E. coli-expressed human IL-13 (human, UniProt P35225 35-146); test: SPR
T2 construct: made and purified at GSK; also called Interleukin-13; rhIL-13

[2] = molecular target: T1, recombinant E. coli-expressed human IL-4; test: SPR
[3] = molecular target: T1, recombinant E. coli-expressed human IL-4; test: SPR exp 1
[4] = molecular target: T2, recombinant E. coli-expressed human …; test: SPR exp 1

Binder	Kd [1]	Kd [2]	koff [2]	kon [2]	also measured
586H-147 (bispecific antibody, human IgG1, kappa) heavy: not shown light: DIVMTQSPLSLPVTPGEPASISCRSSQNIVHINGNTYLEWYLQKPGQSPRLLIYKISDRFSGVPDRFSGSGSGTDFTLKISRVEADDVGIYYCFQGSHVPWTFGQGTKLEIKRTVAAPSVFIFPPSDEQLKSGTASVVCLLNNFYPREAKVQWKVDNALQSGNSQESVTEQDSKDSTYSLSSTLTLSKADYEKHKVYACEVTHQGLSSPVTKSFNRGEC	0.46 nM	345 nM	0.00118 s⁻¹	3420 M⁻¹ s⁻¹	–
586H-G4S-147 (bispecific antibody, human IgG1, kappa) heavy: not shown light: DIVMTQSPLSLPVTPGEPASISCRSSQNIVHINGNTYLEWYLQKPGQSPRLLIYKISDRFSGVPDRFSGSGSGTDFTLKISRVEADDVGIYYCFQGSHVPWTFGQGTKLEIKRTVAAPSVFIFPPSDEQLKSGTASVVCLLNNFYPREAKVQWKVDNALQSGNSQESVTEQDSKDSTYSLSSTLTLSKADYEKHKVYACEVTHQGLSSPVTKSFNRGEC	0.45 nM	108 nM	0.000457 s⁻¹	4210 M⁻¹ s⁻¹	–
586H (antibody, human IgG1, kappa, no dAb; heavy chain ends in GS) heavy: not shown light: DIVMTQSPLSLPVTPGEPASISCRSSQNIVHINGNTYLEWYLQKPGQSPRLLIYKISDRFSGVPDRFSGSGSGTDFTLKISRVEADDVGIYYCFQGSHVPWTFGQGTKLEIKRTVAAPSVFIFPPSDEQLKSGTASVVCLLNNFYPREAKVQWKVDNALQSGNSQESVTEQDSKDSTYSLSSTLTLSKADYEKHKVYACEVTHQGLSSPVTKSFNRGEC	0.44 nM	–	–	–	binding result [2]: no binding (tested: 512 nM top concentration)
586H-ELQLE (antibody, human IgG1, kappa, no dAb; linker only) heavy: not shown light: DIVMTQSPLSLPVTPGEPASISCRSSQNIVHINGNTYLEWYLQKPGQSPRLLIYKISDRFSGVPDRFSGSGSGTDFTLKISRVEADDVGIYYCFQGSHVPWTFGQGTKLEIKRTVAAPSVFIFPPSDEQLKSGTASVVCLLNNFYPREAKVQWKVDNALQSGNSQESVTEQDSKDSTYSLSSTLTLSKADYEKHKVYACEVTHQGLSSPVTKSFNRGEC	0.47 nM	–	–	–	binding result [2]: no binding (tested: 512 nM top concentration)
586H-EPKSC (antibody, human IgG1, kappa) heavy: not shown light: DIVMTQSPLSLPVTPGEPASISCRSSQNIVHINGNTYLEWYLQKPGQSPRLLIYKISDRFSGVPDRFSGSGSGTDFTLKISRVEADDVGIYYCFQGSHVPWTFGQGTKLEIKRTVAAPSVFIFPPSDEQLKSGTASVVCLLNNFYPREAKVQWKVDNALQSGNSQESVTEQDSKDSTYSLSSTLTLSKADYEKHKVYACEVTHQGLSSPVTKSFNRGEC	0.45 nM	–	–	–	binding result [2]: no binding (tested: 512 nM top concentration)
586H-EPKSC-147 (bispecific antibody, human IgG1, kappa) heavy: not shown light: DIVMTQSPLSLPVTPGEPASISCRSSQNIVHINGNTYLEWYLQKPGQSPRLLIYKISDRFSGVPDRFSGSGSGTDFTLKISRVEADDVGIYYCFQGSHVPWTFGQGTKLEIKRTVAAPSVFIFPPSDEQLKSGTASVVCLLNNFYPREAKVQWKVDNALQSGNSQESVTEQDSKDSTYSLSSTLTLSKADYEKHKVYACEVTHQGLSSPVTKSFNRGEC	0.46 nM	26.4 nM	0.000671 s⁻¹	25400 M⁻¹ s⁻¹	–
586H-ASTKG-147 (bispecific antibody, human IgG1, kappa) heavy: not shown light: DIVMTQSPLSLPVTPGEPASISCRSSQNIVHINGNTYLEWYLQKPGQSPRLLIYKISDRFSGVPDRFSGSGSGTDFTLKISRVEADDVGIYYCFQGSHVPWTFGQGTKLEIKRTVAAPSVFIFPPSDEQLKSGTASVVCLLNNFYPREAKVQWKVDNALQSGNSQESVTEQDSKDSTYSLSSTLTLSKADYEKHKVYACEVTHQGLSSPVTKSFNRGEC	0.44 nM	18.8 nM	0.00069 s⁻¹	36700 M⁻¹ s⁻¹	–
586H-ASTKG-154 (bispecific antibody, human IgG1, kappa) heavy: not shown light: DIVMTQSPLSLPVTPGEPASISCRSSQNIVHINGNTYLEWYLQKPGQSPRLLIYKISDRFSGVPDRFSGSGSGTDFTLKISRVEADDVGIYYCFQGSHVPWTFGQGTKLEIKRTVAAPSVFIFPPSDEQLKSGTASVVCLLNNFYPREAKVQWKVDNALQSGNSQESVTEQDSKDSTYSLSSTLTLSKADYEKHKVYACEVTHQGLSSPVTKSFNRGEC	0.44 nM	8.7 nM	0.000284 s⁻¹	32600 M⁻¹ s⁻¹	–
586H-ASTKG-25 (bispecific antibody, human IgG1, kappa) heavy: not shown light: DIVMTQSPLSLPVTPGEPASISCRSSQNIVHINGNTYLEWYLQKPGQSPRLLIYKISDRFSGVPDRFSGSGSGTDFTLKISRVEADDVGIYYCFQGSHVPWTFGQGTKLEIKRTVAAPSVFIFPPSDEQLKSGTASVVCLLNNFYPREAKVQWKVDNALQSGNSQESVTEQDSKDSTYSLSSTLTLSKADYEKHKVYACEVTHQGLSSPVTKSFNRGEC	0.54 nM	21.8 nM	0.0012 s⁻¹	–	–
PascoH-ELQLE-474 (bispecific antibody, human IgG1, kappa) heavy: not shown light: DIVLTQSPSSLSASVGDRVTITCKASQSVDYDGDSYMNWYQQKPGKAPKLLIYAASNLESGIPSRFSGSGSGTDFTFTISSLQPEDIATYYCQQSNEDPPTFGQGTKVEIKRTVAAPSVFIFPPSDEQLKSGTASVVCLLNNFYPREAKVQWKVDNALQSGNSQESVTEQDSKDSTYSLSSTLTLSKADYEKHKVYACEVTHQGLSSPVTKSFNRGEC	–	–	–	–	Kd [3]: 0.02 nM; koff [3]: 0.00011 s⁻¹; kon [3]: 5.1e+06 M⁻¹ s⁻¹; Kd [4]: 1.8 nM; koff [4]: 0.00062 s⁻¹; kon [4]: 340000 M⁻¹ s⁻¹
PascoH-EPKSC-474 (bispecific antibody, human IgG1, kappa) heavy: not shown light: DIVLTQSPSSLSASVGDRVTITCKASQSVDYDGDSYMNWYQQKPGKAPKLLIYAASNLESGIPSRFSGSGSGTDFTFTISSLQPEDIATYYCQQSNEDPPTFGQGTKVEIKRTVAAPSVFIFPPSDEQLKSGTASVVCLLNNFYPREAKVQWKVDNALQSGNSQESVTEQDSKDSTYSLSSTLTLSKADYEKHKVYACEVTHQGLSSPVTKSFNRGEC	–	–	–	–	Kd [3]: 0.02 nM; koff [3]: 9.8e-05 s⁻¹; kon [3]: 4.9e+06 M⁻¹ s⁻¹; Kd [4]: 1.1 nM; koff [4]: 0.0004 s⁻¹; kon [4]: 350000 M⁻¹ s⁻¹

The next lines start with results.

Kd [1]	Kd [2]	koff [2]	kon [2]	Binder	also measured
0.32 nM	–	–	–	586H-ASTKG (antibody, human IgG1, kappa, no dAb; linker only) heavy: not shown light: DIVMTQSPLSLPVTPGEPASISCRSSQNIVHINGNTYLEWYLQKPGQSPRLLIYKISDRFSGVPDRFSGSGSGTDFTLKISRVEADDVGIYYCFQGSHVPWTFGQGTKLEIKRTVAAPSVFIFPPSDEQLKSGTASVVCLLNNFYPREAKVQWKVDNALQSGNSQESVTEQDSKDSTYSLSSTLTLSKADYEKHKVYACEVTHQGLSSPVTKSFNRGEC	binding result [2]: no binding (tested: 512 nM top concentration)
0.46 nM	285 nM	0.00174 s⁻¹	6100 M⁻¹ s⁻¹	586H-154 (bispecific antibody, human IgG1, kappa) heavy: not shown light: DIVMTQSPLSLPVTPGEPASISCRSSQNIVHINGNTYLEWYLQKPGQSPRLLIYKISDRFSGVPDRFSGSGSGTDFTLKISRVEADDVGIYYCFQGSHVPWTFGQGTKLEIKRTVAAPSVFIFPPSDEQLKSGTASVVCLLNNFYPREAKVQWKVDNALQSGNSQESVTEQDSKDSTYSLSSTLTLSKADYEKHKVYACEVTHQGLSSPVTKSFNRGEC	–
0.41 nM	151 nM	0.000954 s⁻¹	6300 M⁻¹ s⁻¹	586H-G4S-25 (bispecific antibody, human IgG1, kappa) heavy: not shown light: DIVMTQSPLSLPVTPGEPASISCRSSQNIVHINGNTYLEWYLQKPGQSPRLLIYKISDRFSGVPDRFSGSGSGTDFTLKISRVEADDVGIYYCFQGSHVPWTFGQGTKLEIKRTVAAPSVFIFPPSDEQLKSGTASVVCLLNNFYPREAKVQWKVDNALQSGNSQESVTEQDSKDSTYSLSSTLTLSKADYEKHKVYACEVTHQGLSSPVTKSFNRGEC	–
0.42 nM	18.8 nM	0.00057 s⁻¹	30300 M⁻¹ s⁻¹	586H-EPKSC-154 (bispecific antibody, human IgG1, kappa) heavy: not shown light: DIVMTQSPLSLPVTPGEPASISCRSSQNIVHINGNTYLEWYLQKPGQSPRLLIYKISDRFSGVPDRFSGSGSGTDFTLKISRVEADDVGIYYCFQGSHVPWTFGQGTKLEIKRTVAAPSVFIFPPSDEQLKSGTASVVCLLNNFYPREAKVQWKVDNALQSGNSQESVTEQDSKDSTYSLSSTLTLSKADYEKHKVYACEVTHQGLSSPVTKSFNRGEC	–
0.37 nM	138 nM	0.000685 s⁻¹	5000 M⁻¹ s⁻¹	586H-G4S-154 (bispecific antibody, human IgG1, kappa) heavy: not shown light: DIVMTQSPLSLPVTPGEPASISCRSSQNIVHINGNTYLEWYLQKPGQSPRLLIYKISDRFSGVPDRFSGSGSGTDFTLKISRVEADDVGIYYCFQGSHVPWTFGQGTKLEIKRTVAAPSVFIFPPSDEQLKSGTASVVCLLNNFYPREAKVQWKVDNALQSGNSQESVTEQDSKDSTYSLSSTLTLSKADYEKHKVYACEVTHQGLSSPVTKSFNRGEC	–
0.55 nM	29.6 nM	0.00142 s⁻¹	47900 M⁻¹ s⁻¹	586H-EPKSC-25 (bispecific antibody, human IgG1, kappa) heavy: not shown light: DIVMTQSPLSLPVTPGEPASISCRSSQNIVHINGNTYLEWYLQKPGQSPRLLIYKISDRFSGVPDRFSGSGSGTDFTLKISRVEADDVGIYYCFQGSHVPWTFGQGTKLEIKRTVAAPSVFIFPPSDEQLKSGTASVVCLLNNFYPREAKVQWKVDNALQSGNSQESVTEQDSKDSTYSLSSTLTLSKADYEKHKVYACEVTHQGLSSPVTKSFNRGEC	–
0.39 nM	67 nM	0.000411 s⁻¹	6130 M⁻¹ s⁻¹	586H-25 (bispecific antibody, human IgG1, kappa) heavy: not shown light: DIVMTQSPLSLPVTPGEPASISCRSSQNIVHINGNTYLEWYLQKPGQSPRLLIYKISDRFSGVPDRFSGSGSGTDFTLKISRVEADDVGIYYCFQGSHVPWTFGQGTKLEIKRTVAAPSVFIFPPSDEQLKSGTASVVCLLNNFYPREAKVQWKVDNALQSGNSQESVTEQDSKDSTYSLSSTLTLSKADYEKHKVYACEVTHQGLSSPVTKSFNRGEC	–
